From the Immune Epitope Database (IEDB)

Molecular target: HLA-A*11:01
Assay: IEDB peptide-MHC binding, purified MHC/competitive/radioactivity; ≥ and ≤ were set here for values at or beyond the usual limits of such assays
[1] = source organism: Human immunodeficiency virus 1
[2] = source organism: Hepatitis B virus
[3] = source organism: Influenza A virus (A/Puerto Rico/8/1934(H1N1))

| Sequence | IC50 [1] | IC50 [2] | other results |
| --- | --- | --- | --- |
| ASQIYAGIK | 18 nM | – | – |
| ATQIPSYKK | – | – | IC50 (source organism: Homo sapiens): 128 nM |
| AVDLSHFLK | 5 nM | – | – |
| AVFIHNFKRK | 7.1 nM | – | – |
| AVNHYFKTR | – | 61 nM | – |
| CALPFTSAR | – | 316 nM | – |
| ESLFRAVITK | – | – | IC50 (source organism: Homo sapiens): 1150 nM |
| GIPHPAGLK | 35 nM | – | – |
| GSTHVSWPK | – | 3.1 nM | – |
| GTDNSVVLSR | – | 107 nM | – |
| GTKVVPRGK | – | – | IC50 [3]: 72 nM |
| GVTAACSHAGK | – | – | IC50 [3]: 30 nM |
| IMPARFYPK | – | 4.1 nM | – |
| KVFVLGGCR | – | 6.5 nM | – |
| KVLFLDGIDK | 7.7 nM | – | – |
| KVYLAWVPAHK | 7.6 nM | – | – |
| LACAGLAYK | – | – | IC50 (source organism: Plasmodium falciparum): 207 nM |
| LSLDVSAAFY | – | 545 nM | – |
| LTEKEGSYPK | – | – | IC50 [3]: 121 nM |
| MTKILEPFR | 378 nM | – | – |
| NVKNLYEKVK | – | – | IC50 [3]: 51 nM |
| PVTIGECPK | – | – | IC50 [3]: 2.6 nM |
| QIYQEPFKNLK | 21 nM | – | – |
| QMAVFIHNFK | 8.4 nM | – | – |
| RAKWNNTLK | 188 nM | – | – |
| RLADEGLNR | – | 245 nM | – |
| RMGVQMQRFK | – | – | IC50 [3]: 94 nM |
| TTDLEAYFK | – | 6.5 nM | – |
| TVQPIVLPEK | 2.4 nM | – | – |
| YLAWVPAHK | 106 nM | – | – |
